Assay results from US20250136688A1 (Janssen / Centocor, published 2025).

Assays:
[1] = molecular target: T1, prostate specific membrane antigen (PSMA) (human, UniProt Q04609 1-750); assay: cell-based or functional assay
[2] = molecular target: T1, prostate specific membrane antigen …; assay: flow cytometry on LNCaP cells, 30 min at 37 °C
Method: Media was added to neutralize trypsin and the cells were transferred to a 15 mL conical with DPBS. The cells were centrifuged 1300 rpm for 5 minutes. DPBS was aspirated and cells were re-suspended in DPBS. The cells were counted using the Vi-cell XR cell viability analyzer and were plated at 100K/well in 100 μL DPBS. The plate was centrifuged at 1200 rpm for 3 minutes and washed 2× with DPBS. Cells were stained with Violet Live/Dead stain (Thermo-Fisher) and incubated at room temperature in the dark for 15 min. The cells were centrifuged and washed 2× with FACS staining buffer (BD Pharmingen).
Cells were washed 2× with FACS staining buffer and re-suspended in 200 μL FACS Buffer. Cells were run on BD CELESTA using FACS Diva software and analyzed using FLOWJO.

[3] = molecular target: T2, Human CD3 epsilon (human, UniProt P07766 23-207); assay: flow cytometry on human PAN-T cells, 60 min at 4 °C
T2 construct: Stood on human T cells (pan-T cells, isolated donor T cells) as part of the TCR/CD3 complex; the other chains of the complex are not written here; also called CD3ε; CD3R
T2 sequence (P07766 23-207 limits assumed): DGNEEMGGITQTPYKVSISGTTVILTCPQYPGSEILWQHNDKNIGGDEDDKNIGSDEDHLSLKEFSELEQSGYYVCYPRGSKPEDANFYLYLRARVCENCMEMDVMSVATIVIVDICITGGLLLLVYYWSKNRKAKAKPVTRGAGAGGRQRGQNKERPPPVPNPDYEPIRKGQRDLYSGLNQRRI
Method: Human PAN-T Cells (Biological Specialty Corporation, Colmar, PA) were thawed and transferred to a 15 mL conical with DPBS. The cells were centrifuged 1300 rpm for 5 minutes. DPBS was aspirated and cells were re-suspended in DPBS. The cells were counted using the Vi-cell XR cell viability analyzer and were plated at 100K/well in 100 uL DPBS. The plate was centrifuged 1200 rpm for 3 minutes and washed 2× with DPBS. Cells were stained with Violet Live/Dead stain (Thermo-Fisher) and incubated at room temperature in the dark for 15 min. The cells were centrifuged and washed 2× with FACS staining buffer (BD Pharmingen).
Cells were washed 2× with FACS staining buffer and re-suspended in 200 μL FACS Buffer. Cells were run on BD Celesta using FACS Diva software and analyzed using FLOWJO.

[4] = molecular target: T3, human claudin 18.2 (human, UniProt P56856-2 1-261); assay: flow cytometry on GSU cells, 1 hr at 37 °C
T3 construct: whole, on cells; also called CLDN18.2
T3 sequence (looked up): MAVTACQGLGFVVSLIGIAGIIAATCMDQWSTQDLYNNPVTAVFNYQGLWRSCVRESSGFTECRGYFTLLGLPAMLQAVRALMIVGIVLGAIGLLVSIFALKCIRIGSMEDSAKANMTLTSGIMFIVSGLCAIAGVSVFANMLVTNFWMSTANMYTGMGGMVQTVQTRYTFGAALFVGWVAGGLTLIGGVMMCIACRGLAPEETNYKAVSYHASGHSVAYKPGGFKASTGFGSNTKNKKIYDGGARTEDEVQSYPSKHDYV
Method: (§1) Cells were thawed in a 37° C. water bath and resuspended in complete assay media before being transferred to culture flasks. The cells used for this experiment were kept in active culture, passaged at least two times, and were >90% viable at assay initiation. The kinetic cell binding assay was initiated by adding 200 μL of cells and 200 μL of antibody into each well of a 2 mL 96-well deep plate and incubated at 37° C. At each time point, a 50 μL aliquot was removed and transferred to a round bottom 96-well plate containing cold FACS buffer. […] The secondary antibody was incubated with cells for 30 min at 4° C. protected from light. After incubation, cells were washed three times with cold FACS buffer and then resuspended in FACS buffer containing 0.1% pluronic acid, 2 mM EDTA, and Sytox Green (diluted 1:1000) to label all dead cells. Staining was immediately analyzed on the Intellicyt iQue3 (Sartorius).

[5] = molecular target: T3, human claudin 18.2; assay: flow cytometry on NCI-H146 cells, 1 hr at 37 °C
Method: as §1

[6] = molecular target: T3, human claudin 18.2; assay: flow cytometry on SK-CO-1 cells, 1 hour at 37 °C
Method: Purified CLDN18.2×CD3 antibodies were assessed for their ability to bind to cell lines expressing endogenous CLDN18.2 (SK-CO-1).
SK-CO-1 cells and DMS 454 cells were suspended in 50 ml conical tubes at 20-22 million cells per 50 ml conical tube. […] Cells were incubated for 10 minutes at room temperature protected from light, and centrifuged for 5 minutes at 400×g. The supernatant was removed and the cells were resuspended in HI FBS at ˜1.5×10\hat{ }6 cells/mL to quench the staining reactions. All cells were resuspended in fresh media at ˜1.5×10\hat{ }6 cells/mL. Equal volumes of CFSE stained SK-CO-1 cells, CTV stained DMS 454 cells and unstained SK-CO-1 cells were mixed and 50 μl of mixed cells were plated per well into assay plates (˜25k cells/each cell line; ˜75k/total mixed cells/well). Anti-human transferrin human mAb and human IgG1_AAS isotype (bivalent) were used as positive and negative controls, respectively. 50 μl of CLDN18.2×CD3 titrations at 2× concentration were added in each well containing cells and incubated for one hours at 37° C. 150 μl staining buffer was added to each well after one hour incubation. The plate was spun at 500×g for 5 minutes to pellet the cells. 150 μl staining buffer was added again to each well and the plate was spun at 500×g for 5 minutes to pellet the cells. Supernatant was removed and 50 μl of A647 conjugated anti human IgG Fc specific secondary detection antibody (Jackson ImmunoResearch) was the added at 2 μg/mL in staining buffer to each well. The plates were covered with foil and incubated for 30 minutes on ice. 150 μL of IntelliCyt running buffer was added to the wells, and the plate was spun at 500×g for 5 minutes to pellet cells and the supernatant was removed. Cells were then resuspended in 35 μL running buffer and the plates were run on an iQue Screener (Sartorius).

[7] = molecular target: T4, human GUCY2C (human, UniProt P25092 24-1073); assay: flow cytometry on CHO-huGUCY2C cells, 60 min at 37 °C
T4 construct: whole, on cells; also called huGUCY2C; guanylate cyclase 2C
T4 sequence (P25092 24-1073): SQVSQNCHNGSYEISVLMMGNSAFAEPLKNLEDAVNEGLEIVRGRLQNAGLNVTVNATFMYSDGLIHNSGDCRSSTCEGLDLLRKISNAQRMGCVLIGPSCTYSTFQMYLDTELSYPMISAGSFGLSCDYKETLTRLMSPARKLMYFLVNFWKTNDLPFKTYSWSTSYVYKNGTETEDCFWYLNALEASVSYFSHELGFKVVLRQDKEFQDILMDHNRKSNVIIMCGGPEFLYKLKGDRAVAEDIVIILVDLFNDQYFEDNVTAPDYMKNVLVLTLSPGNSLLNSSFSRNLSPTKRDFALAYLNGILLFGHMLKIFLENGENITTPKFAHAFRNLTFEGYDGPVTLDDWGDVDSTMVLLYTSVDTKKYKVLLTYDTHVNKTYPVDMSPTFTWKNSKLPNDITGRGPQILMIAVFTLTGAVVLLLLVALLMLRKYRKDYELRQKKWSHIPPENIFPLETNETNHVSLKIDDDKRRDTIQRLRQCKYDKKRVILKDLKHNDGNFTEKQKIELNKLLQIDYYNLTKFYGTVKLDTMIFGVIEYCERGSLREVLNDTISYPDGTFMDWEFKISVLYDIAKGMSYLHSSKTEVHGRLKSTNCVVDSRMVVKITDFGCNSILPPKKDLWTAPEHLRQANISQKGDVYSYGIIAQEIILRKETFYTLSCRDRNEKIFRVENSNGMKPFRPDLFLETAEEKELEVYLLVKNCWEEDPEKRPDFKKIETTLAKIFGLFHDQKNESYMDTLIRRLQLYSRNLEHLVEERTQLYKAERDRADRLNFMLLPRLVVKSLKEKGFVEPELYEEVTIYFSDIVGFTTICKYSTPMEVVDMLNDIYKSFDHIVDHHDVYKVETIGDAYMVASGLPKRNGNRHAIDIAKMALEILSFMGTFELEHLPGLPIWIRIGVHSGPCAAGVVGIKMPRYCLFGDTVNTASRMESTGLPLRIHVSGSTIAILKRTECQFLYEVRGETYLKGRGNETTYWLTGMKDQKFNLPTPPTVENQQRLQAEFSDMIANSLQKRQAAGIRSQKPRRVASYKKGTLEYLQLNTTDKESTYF
Method: (§2) Cells were washed twice again, resuspended and acquired in a flow cytometer. Specific antibody binding was assessed in the RL1H channel for each cell line. Data presented as signal/background where background is secondary only.

[8] = molecular target: cyno GUCY2C (cynomolgus monkey, UniProt A0A2K5TZ02 16-1015); assay: flow cytometry on CHO-cynoGUCY2C cells, 60 min at 37 °C
Sequence of cyno GUCY2C (A0A2K5TZ02 entry or part of it): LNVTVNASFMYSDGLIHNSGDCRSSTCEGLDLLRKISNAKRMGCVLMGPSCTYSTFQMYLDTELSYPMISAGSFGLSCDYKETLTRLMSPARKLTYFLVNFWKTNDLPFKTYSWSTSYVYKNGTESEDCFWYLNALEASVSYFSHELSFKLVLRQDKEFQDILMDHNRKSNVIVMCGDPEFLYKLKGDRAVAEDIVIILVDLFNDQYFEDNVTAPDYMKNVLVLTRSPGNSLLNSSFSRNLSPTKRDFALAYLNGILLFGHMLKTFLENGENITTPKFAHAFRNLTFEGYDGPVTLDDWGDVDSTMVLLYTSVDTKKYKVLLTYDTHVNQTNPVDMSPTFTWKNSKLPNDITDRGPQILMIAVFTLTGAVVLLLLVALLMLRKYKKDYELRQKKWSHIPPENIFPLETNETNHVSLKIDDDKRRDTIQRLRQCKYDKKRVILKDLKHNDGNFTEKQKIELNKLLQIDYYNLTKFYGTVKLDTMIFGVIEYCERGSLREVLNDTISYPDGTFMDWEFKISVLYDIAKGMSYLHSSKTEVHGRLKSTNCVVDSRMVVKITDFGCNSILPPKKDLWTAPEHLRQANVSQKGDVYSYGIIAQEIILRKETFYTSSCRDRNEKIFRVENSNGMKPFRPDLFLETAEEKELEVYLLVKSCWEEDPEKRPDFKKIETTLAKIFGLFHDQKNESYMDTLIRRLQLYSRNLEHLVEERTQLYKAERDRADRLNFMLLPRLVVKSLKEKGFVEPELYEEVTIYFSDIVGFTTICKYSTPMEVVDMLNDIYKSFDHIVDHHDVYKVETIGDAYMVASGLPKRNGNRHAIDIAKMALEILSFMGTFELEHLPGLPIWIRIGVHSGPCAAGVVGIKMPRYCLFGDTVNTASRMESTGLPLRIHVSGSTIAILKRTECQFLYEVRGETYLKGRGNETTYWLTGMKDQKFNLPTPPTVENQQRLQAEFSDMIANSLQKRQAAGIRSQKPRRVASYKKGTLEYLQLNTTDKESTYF
Method: as §2

T1 sequence (Q04609 whole entry): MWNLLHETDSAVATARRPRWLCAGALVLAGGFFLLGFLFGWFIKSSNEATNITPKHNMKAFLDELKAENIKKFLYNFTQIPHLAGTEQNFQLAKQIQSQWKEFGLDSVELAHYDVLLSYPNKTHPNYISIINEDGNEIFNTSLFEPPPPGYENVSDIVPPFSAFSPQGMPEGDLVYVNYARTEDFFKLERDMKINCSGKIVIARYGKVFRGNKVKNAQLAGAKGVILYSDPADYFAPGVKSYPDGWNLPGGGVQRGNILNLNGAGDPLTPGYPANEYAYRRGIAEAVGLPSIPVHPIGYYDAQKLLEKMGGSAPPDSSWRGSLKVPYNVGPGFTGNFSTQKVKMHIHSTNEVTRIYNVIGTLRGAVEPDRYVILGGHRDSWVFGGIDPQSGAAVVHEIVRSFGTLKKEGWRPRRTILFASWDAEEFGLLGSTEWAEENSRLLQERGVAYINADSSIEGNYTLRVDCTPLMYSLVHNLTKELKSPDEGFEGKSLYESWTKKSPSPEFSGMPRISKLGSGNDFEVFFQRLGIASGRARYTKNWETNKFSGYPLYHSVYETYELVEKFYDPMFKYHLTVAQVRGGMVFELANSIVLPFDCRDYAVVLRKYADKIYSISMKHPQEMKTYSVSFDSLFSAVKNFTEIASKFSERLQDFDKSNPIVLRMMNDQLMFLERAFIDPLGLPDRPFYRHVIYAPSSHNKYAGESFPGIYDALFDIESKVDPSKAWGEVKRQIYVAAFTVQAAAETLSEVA

B1: stapled PSMA×CD3 antibody (PS3B2040) (bispecific antibody, human IgG1, lambda, L234A L235A)
heavy: EVQLVESGGGLVQPGGSLRLSCAASGFTFSSYAMSWVRQAPGKGLEWVSAISGGIGSTYYADSVKGRFTISRDNSKNTLWLQMNSLRAEDTAVYYCAKDAVGATPYYFDYWGQGTLVTVSSASTKGPSVFPLAPSSKSTSGGTAALGCLVKDYFPEPVTVSWNSGALTSGVHTFPAVLQSSGLYSLSSVVTVPSSSLGTQTYICNVNHKPSNTKVDKKVEPKSCDKTHTCPPCPAPEAAGGPSVFLFPPKPKDTLMISRTPEVTCVVVSVSHEDPEVKFNWYVDGVEVHNAKTKPREEQYNSTYRVVSVLTVLHQDWLNGKEYKCKVSNKALPAPIEKTISKAKGQPREPQVYTLPPSREEMTKNQVSLSCAVKGFYPSDIAVEWESNGQPENNYKTTPPVLDSDGSFFLVSKLTVDKSRWQQGNVFSCSVMHEALHNRFTQKSLSLSPGK
light: QSVLTQPPSVSAAPGQKVTISCSGSSSNIGINYVSWYQQLPGTAPKLLIYDNNKRPSGIPDRFSGSKSGTSATLGITGLQTGDEADYYCGTWDSSLSAVVFGGGTKLTVLGQPKAAPSVTLFPPSSEELQANKATLVCLISDFYPGAVTVAWKADSSPVKAGVETTTPSKQSNNKYAASSYLSLTPEQWKSHRSYSCQVTHEGSTVEKTVAPTECS
chain: EIVLTQSPATLSASPGERVTLSCSASSSVSYMNWYQQKPGCAPRRWIYDSSKLASGVPARFSGSGSGRDYTLTISSLEPEDFAVYYCQQWSRNPPTFGGGTKVEIKGGGSGGSGGCPPCGGSGGQVQLVQSGAEVKKPGSSVKVSCKASGYTFTRSTMHWVKQAPGQGLEWIGYINPSSAYTNYNQKFQGRVTLTADKSTSTAYMELSSLRSEDTAVYYCASPQVHYDYAGFPYWGCGTLVTVSSEPKSSDKTHTCPPCPAPEAAGGPSVFLFPPKPKDTLMISRTPEVTCVVVSVSHEDPEVKFNWYVDGVEVHNAKTKPREEQYNSTYRVVSVLTVLHQDWLNGKEYKCKVSNKALPAPIEKTISKAKGQPREPQVYTLPPSREEMTKNQVSLWCLVKGFYPSDIAVEWESNGQPENNYKTTPPVLDSDGSFFLYSKLTVDKSRWQQGNVFSCSVMHEALHNHYTQKSLSLSPGK
notes: HC1/LC1 = anti-PSMA Fab arm (PSMB896-G100A-Fab); HC2 = anti-CD3 spFv-Fc (CD3B2030 N106A, VL-linker-VH); knob-in-hole IgG1; also called stapled PSMA×CD3 bispecific
B1 was tested, and the “cytotoxicity EC50 (% tumor lysis, Incucyte), LNCaP cells with human PBMCs, E:T 3:1” value [1] was 0.051 nM, the “cytotoxicity EC50 (% tumor lysis, Incucyte), LNCaP cells with human Pan T cells, E:T 3:1” value [1] was 0.06 nM and the EC50 [2] was 11.6 nM. B1: binds [3].

B2: CLDN18.2xCD3 bisp-Ab4 (bispecific antibody)
heavy: EVQLLESGGGLVQPGGSLRLSCAASGFIFSNYYMAWVRLAPGKGLEWVSSISIGGGKSHYADSVKGRFTISRDNSKNTLYLQMNSLRAEDTAVYYCVRHPQLGPNPFDYWGQGTLVTVSSASTKGPSVFPLAPSSKSTSGGTAALGCLVKDYFPEPVTVSWNSGALTSGVHTFPAVLQSSGLYSLSSVVTVPSSSLGTQTYICNVNHKPSNTKVDKKVEPKSCDKTHTCPPCPAPEAAGGPSVFLFPPKPKDTLMISRTPEVTCVVVSVSHEDPEVKFNWYVDGVEVHNAKTKPREEQYNSTYRVVSVLTVLHQDWLNGKEYKCKVSNKALPAPIEKTISKAKGQPREPQVYTLPPSREEMTKNQVSLSCAVKGFYPSDIAVEWESNGQPENNYKTTPPVLDSDGSFFLVSKLTVDKSRWQQGNVFSCSVMHEALHNRFTQKSLSLSPGK
light: DIQMTQSPSSLSASVGDRVTITCRASQSVTISSVDLMNWYQQKPGKAPKLLIYRASNLASGIPSRFSGSGSGTDFTLTISSLQPEDFATYYCQQSRESPYTFGQGTKLEIKRTVAAPSVFIFPPSDEQLKSGTASVVCLLNNFYPREAKVQWKVDNALQSGNSQESVTEQDSKDSTYSLSSTLTLSKADYEKHKVYACEVTHQGLSSPVTKSFNRGEC
chain: EIVLTQSPATLSASPGERVTLSCSASSSVSYMNWYQQKPGCAPRRWIYDSSKLASGVPARFSGSGSGRDYTLTISSLEPEDFAVYYCQQWSRNPPTFGGGTKVEIKGGGSGGSGGCPPCGGSGGQVQLVQSGAEVKKPGSSVKVSCKASGYTFTRSTMHWVKQAPGQGLEWIGYINPSSAYTNYNQKFQGRVTLTADKSTSTAYMELSSLRSEDTAVYYCASPQVHYDYAGFPYWGCGTLVTVSS
notes: The entry for the CD3 arm holds only the spFv; also called CLDN18.2×CD3 bisp-Ab4; not shown: IgG1 hinge-CH2-CH3 with L234A/L235A/D265S and heterodimerization mutations
With B2 the EC50 [4] was 74 nM, the EC50 [5] was 23 nM and the EC50 [6] was 41.3 nM.

B3: CLDN18.2xCD3 bisp-Ab3 (bispecific antibody)
heavy: EVQLLESGGGLVQPGGSLRLSCAASGFIFSNYYMAWVRLAPGKGLEWVSSISIGGGKSHYADSVKGRFTISRDNSKNTLYLQMNSLRAEDTAVYYCVRHPQSGPNPFDYWGQGTLVTVSSASTKGPSVFPLAPSSKSTSGGTAALGCLVKDYFPEPVTVSWNSGALTSGVHTFPAVLQSSGLYSLSSVVTVPSSSLGTQTYICNVNHKPSNTKVDKKVEPKSCDKTHTCPPCPAPEAAGGPSVFLFPPKPKDTLMISRTPEVTCVVVSVSHEDPEVKFNWYVDGVEVHNAKTKPREEQYNSTYRVVSVLTVLHQDWLNGKEYKCKVSNKALPAPIEKTISKAKGQPREPQVYTLPPSREEMTKNQVSLSCAVKGFYPSDIAVEWESNGQPENNYKTTPPVLDSDGSFFLVSKLTVDKSRWQQGNVFSCSVMHEALHNRFTQKSLSLSPGK
light: DIQMTQSPSSLSASVGDRVTITCRASQSVTISSVDLMNWYQQKPGKAPKLLIYRASNLASGIPSRFSGSGSGTDFTLTISSLQPEDFATYYCQQSRESPYTFGQGTKLEIKRTVAAPSVFIFPPSDEQLKSGTASVVCLLNNFYPREAKVQWKVDNALQSGNSQESVTEQDSKDSTYSLSSTLTLSKADYEKHKVYACEVTHQGLSSPVTKSFNRGEC
chain: EIVLTQSPATLSASPGERVTLSCSASSSVSYMNWYQQKPGCAPRRWIYDSSKLASGVPARFSGSGSGRDYTLTISSLEPEDFAVYYCQQWSRNPPTFGGGTKVEIKGGGSGGSGGCPPCGGSGGQVQLVQSGAEVKKPGSSVKVSCKASGYTFTRSTMHWVKQAPGQGLEWIGYINPSSAYTNYNQKFQGRVTLTADKSTSTAYMELSSLRSEDTAVYYCASPQVHYDYAGFPYWGCGTLVTVSS
notes: The entry for the CD3 arm holds only the spFv; not shown: IgG1 hinge-CH2-CH3 with L234A/L235A/D265S and heterodimerization mutations
For B3, the EC50 [6] was 229 nM.

B4: CLDN18.2xCD3 bisp-Ab2 (bispecific antibody)
heavy: EVQLLESGGGLVQPGGSLRLSCAASGFIFSNYYMAWVRLAPGKGLEWVSSISIGGGKSHYADSVKGRFTISRDNSKNTLYLQMNSLRAEDTAVYYCVRHPSLGPNPFDYWGQGTLVTVSSASTKGPSVFPLAPSSKSTSGGTAALGCLVKDYFPEPVTVSWNSGALTSGVHTFPAVLQSSGLYSLSSVVTVPSSSLGTQTYICNVNHKPSNTKVDKKVEPKSCDKTHTCPPCPAPEAAGGPSVFLFPPKPKDTLMISRTPEVTCVVVSVSHEDPEVKFNWYVDGVEVHNAKTKPREEQYNSTYRVVSVLTVLHQDWLNGKEYKCKVSNKALPAPIEKTISKAKGQPREPQVYTLPPSREEMTKNQVSLSCAVKGFYPSDIAVEWESNGQPENNYKTTPPVLDSDGSFFLVSKLTVDKSRWQQGNVFSCSVMHEALHNRFTQKSLSLSPGK
light: DIQMTQSPSSLSASVGDRVTITCRASQSVTISSVDLMNWYQQKPGKAPKLLIYRASNLASGIPSRFSGSGSGTDFTLTISSLQPEDFATYYCQQSRESPYTFGQGTKLEIKRTVAAPSVFIFPPSDEQLKSGTASVVCLLNNFYPREAKVQWKVDNALQSGNSQESVTEQDSKDSTYSLSSTLTLSKADYEKHKVYACEVTHQGLSSPVTKSFNRGEC
chain: EIVLTQSPATLSASPGERVTLSCSASSSVSYMNWYQQKPGCAPRRWIYDSSKLASGVPARFSGSGSGRDYTLTISSLEPEDFAVYYCQQWSRNPPTFGGGTKVEIKGGGSGGSGGCPPCGGSGGQVQLVQSGAEVKKPGSSVKVSCKASGYTFTRSTMHWVKQAPGQGLEWIGYINPSSAYTNYNQKFQGRVTLTADKSTSTAYMELSSLRSEDTAVYYCASPQVHYDYAGFPYWGCGTLVTVSS
notes: as for B3
With B4 the EC50 [6] was 193 nM.

B5: CLDN18.2xCD3 bisp-Ab1 (bispecific antibody)
heavy: EVQLLESGGGLVQPGGSLRLSCAASGFIFSNYYMAWVRLAPGKGLEWVSSISIGGGKSSYADSVKGRFTISRDNSKNTLYLQMNSLRAEDTAVYYCVRHPQLGPNPFDYWGQGTLVTVSSASTKGPSVFPLAPSSKSTSGGTAALGCLVKDYFPEPVTVSWNSGALTSGVHTFPAVLQSSGLYSLSSVVTVPSSSLGTQTYICNVNHKPSNTKVDKKVEPKSCDKTHTCPPCPAPEAAGGPSVFLFPPKPKDTLMISRTPEVTCVVVSVSHEDPEVKFNWYVDGVEVHNAKTKPREEQYNSTYRVVSVLTVLHQDWLNGKEYKCKVSNKALPAPIEKTISKAKGQPREPQVYTLPPSREEMTKNQVSLSCAVKGFYPSDIAVEWESNGQPENNYKTTPPVLDSDGSFFLVSKLTVDKSRWQQGNVFSCSVMHEALHNRFTQKSLSLSPGK
light: DIQMTQSPSSLSASVGDRVTITCRASQSVTISSVDLMNWYQQKPGKAPKLLIYRASNLASGIPSRFSGSGSGTDFTLTISSLQPEDFATYYCQQSRESPYTFGQGTKLEIKRTVAAPSVFIFPPSDEQLKSGTASVVCLLNNFYPREAKVQWKVDNALQSGNSQESVTEQDSKDSTYSLSSTLTLSKADYEKHKVYACEVTHQGLSSPVTKSFNRGEC
chain: EIVLTQSPATLSASPGERVTLSCSASSSVSYMNWYQQKPGCAPRRWIYDSSKLASGVPARFSGSGSGRDYTLTISSLEPEDFAVYYCQQWSRNPPTFGGGTKVEIKGGGSGGSGGCPPCGGSGGQVQLVQSGAEVKKPGSSVKVSCKASGYTFTRSTMHWVKQAPGQGLEWIGYINPSSAYTNYNQKFQGRVTLTADKSTSTAYMELSSLRSEDTAVYYCASPQVHYDYAGFPYWGCGTLVTVSS
notes: not shown: IgG1 hinge-CH2-CH3 with L234A/L235A/D265S and heterodimerization mutations
With B5 the EC50 [6] was 12.7 nM.

B6: GUCY2C_mAb (antibody, V domains shown)
VH: QVQLQESGPGLVKPSETLSLTCTVSGASISHYYWSWIRRPAGKGLEWIGRIYTSGSTNYNPSLKSRVTVSVDTSKNQFSLKLSSVTAADTAVYYCARDRYTGYFDLWGRGTLVTVSS
VL: not shown
notes: also called GUCYC2_mAb
With B6 the EC50 [7] was 4.6 nM and the EC50 [8] was 8.7 nM.
